We go through 5 molecules from paper PMC5573156 (Developmental cell, 2017).

Test [1] deals with microtubules polymerized from bovine brain tubulin (bovine) (UniProt Q6B856). Kind of test: single-molecule TIRF motility assay.
In test [2] the target is bovine brain tubulin, unpolymerized (soluble αβ-tubulin dimer) (bovine) (UniProt Q6B856).
Test [3] has as its target Kip3_(438) (S. cerevisiae) (UniProt P53086). Kind of test: BLI. On the technique in general: BLI is a label-free optical method that tracks binding on a fibre tip over time.
The target in test [4] is Kip3_(448) (S. cerevisiae) (UniProt P53086). Kind of test: BLI.
The target of test [5] is Kip3_(438)-L11^KHC (S. cerevisiae) (UniProt P53086). Kind of test: BLI.
Test [6] concerns the target GTPγS-stabilized Tub1^D118A yeast microtubules (S. cerevisiae, UniProt P09733 1-447; P02557 1-457, D118A). Kind of test: TIRF fluorescence intensity on immobilised microtubules.
The target in test [7] is microtubules polymerized from bovine brain tubulin (bovine) (UniProt Q6B856). In words: single-molecule TIRF motility assay. The source holds these as a separate data set.
For test [8] the target is unchanged. In words: single-molecule TIRF motility assay. This is another data set of the same source.

Where two headings read alike, the source gives them in different places.

microtubules polymerized from bovine brain tubulin (bovine), sequence (Q6B856 whole entry, looked up): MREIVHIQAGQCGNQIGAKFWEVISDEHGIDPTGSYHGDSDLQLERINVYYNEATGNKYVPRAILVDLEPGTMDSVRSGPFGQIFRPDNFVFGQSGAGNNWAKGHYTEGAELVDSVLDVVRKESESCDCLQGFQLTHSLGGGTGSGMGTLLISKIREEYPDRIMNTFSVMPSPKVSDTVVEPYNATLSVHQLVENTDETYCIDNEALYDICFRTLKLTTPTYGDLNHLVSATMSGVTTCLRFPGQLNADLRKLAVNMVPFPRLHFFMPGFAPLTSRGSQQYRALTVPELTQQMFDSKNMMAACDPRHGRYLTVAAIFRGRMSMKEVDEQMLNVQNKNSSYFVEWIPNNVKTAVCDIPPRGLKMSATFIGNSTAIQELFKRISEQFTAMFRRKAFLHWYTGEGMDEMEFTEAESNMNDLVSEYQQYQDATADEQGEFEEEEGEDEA
GTPγS-stabilized Tub1^D118A yeast microtubules, sequence (P09733 whole entry D118A, chain 1 of 2): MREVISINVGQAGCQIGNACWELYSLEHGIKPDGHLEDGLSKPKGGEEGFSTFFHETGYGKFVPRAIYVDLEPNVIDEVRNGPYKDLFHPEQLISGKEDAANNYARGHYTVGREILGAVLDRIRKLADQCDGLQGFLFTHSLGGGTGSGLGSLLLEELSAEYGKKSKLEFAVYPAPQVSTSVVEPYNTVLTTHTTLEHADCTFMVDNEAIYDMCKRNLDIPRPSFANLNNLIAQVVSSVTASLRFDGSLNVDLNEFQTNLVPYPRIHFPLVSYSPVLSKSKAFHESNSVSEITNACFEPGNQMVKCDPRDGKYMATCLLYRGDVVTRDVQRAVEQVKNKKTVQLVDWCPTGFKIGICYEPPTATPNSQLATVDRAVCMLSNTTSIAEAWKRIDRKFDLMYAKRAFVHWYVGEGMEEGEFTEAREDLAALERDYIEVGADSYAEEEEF
GTPγS-stabilized Tub1^D118A yeast microtubules, sequence (P02557 whole entry, stated change not applied, chain 2 of 2): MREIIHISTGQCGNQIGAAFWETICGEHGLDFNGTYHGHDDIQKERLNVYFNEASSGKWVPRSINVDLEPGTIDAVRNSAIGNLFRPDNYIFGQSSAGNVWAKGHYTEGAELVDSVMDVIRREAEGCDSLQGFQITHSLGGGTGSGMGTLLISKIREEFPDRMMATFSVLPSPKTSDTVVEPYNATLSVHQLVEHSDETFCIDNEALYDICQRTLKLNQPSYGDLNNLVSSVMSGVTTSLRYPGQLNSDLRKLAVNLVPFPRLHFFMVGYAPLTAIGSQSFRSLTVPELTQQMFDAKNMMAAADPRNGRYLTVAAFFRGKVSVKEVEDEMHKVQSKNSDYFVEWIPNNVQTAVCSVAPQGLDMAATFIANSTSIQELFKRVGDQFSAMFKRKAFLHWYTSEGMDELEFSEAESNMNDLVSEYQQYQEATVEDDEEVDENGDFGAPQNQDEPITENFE

As to “KHC560 with Kip3 Loop11 and Loop2 (from UniProt P33176 1-560)”, the plus-end residence time in test [1] worked out at 52.1 s. On to “KHC560-L11^Kip3 (from UniProt P33176 1-560)”, for which the steady-state ATPase: decrease of the KM for tubulin against kinesin-1 in test [2] was determined as 9.4 fold. In the case of “Kip3FL-L2^KHC (from UniProt P53086 1-805)”, the plus-end dwell time in test [1] stood at 9.3 s. In test [3], “bovine brain tubulin, unpolymerized (soluble αβ-tubulin dimer) (from UniProt Q6B856 1-445) (complex)” came in with a lifetime of the complex of 48 s. The molecule further registered a residence time (koff^-1) with ADP in test [4] of 35.7 s. In addition, the fold change in tubulin binding affinity, Kip3 438 over Kip3 438-L11KHC in test [5] amounted to 7 fold.

B1: Kip3FL (full-length Kip3, budding yeast kinesin-8) (natural protein, S. cerevisiae, UniProt P53086 1-805, looked up)
chain: MNVPETRQSSIVVAIRVRPFTSMEKTRLVNEASGAEANFPGLGDSSLILPMSNNSDSDIDIDAEEGSTRSKRNSLLRRKVIRPEGIRKIVDCVDDRMLIFDPADRNPLNKVSDQVLNSMRARATKATASSINNSNATNKFSSQRRRHGGEIKFVFDKLFDETSSQARVYKETTSPLLDSVLDGFNSTVFAYGATGCGKTYTVSGTPSQPGIIFLAMEELFNKITDLKDEKDFEISLSYLEIYNERIRDLLKPETPSKRLVIREDTQNHIKVANLSYHHPNTVEDVMDLVVQGNINRTTSPTEANEVSSRSHAVLQIHIMQTNKLVDLTSQHTFATLSIIDLAGSERAAATRNRGIRLHEGANINRSLLALGNCINALCLNDGSRSCHIPYRDSKLTRLLKFSLGGNCKTVMIVCISPSSSHYDETLNTLKYANRAKEIKTKIIRNQQSLSRHVGSYLKMITEQKRQIEELREREEKMISLKLTKYKLNKEKIQLAINECVNRVQQTYAGVETYQVAKTLKSLILCKRRFLQMVKLEVDNLILLFEREESTAAEMQPVISNCRMISGQLYNKIHELEMKFDETDTLSSVIHQVHSIDLNKLREMEDWDETYDLVYLESCLNQISELQRNEILVNSSIMTEKLMSDPGLNSRFKFLSKWLMNRTPNIESIIQDLVHIDEEFESFARTFIANPDSNFTNTNINIINTTAADLAVPAETLQRQNFSQKKVKWTSPDLSPSPMIEPQPELEPELHQDQDAIASEVDVSMQDTTFNEQGPSTPSAPTTAVPRRKMRSSLLTHQSLLATARK
modifications: TMR (HALO-TMR) on the HALO tag where labelled
Regarding B1, the binding result in test [6] is “binds”. For the same molecule, the values for the plus-end dwell time in test [7] and in test [8] were 38.2 s and 52.9 s, respectively.
